In the experiment the target is T1, Recombinant human sCD4 CF (Homo sapiens, UniProt P01730).
T1 construct: CD4, human, soluble recombinant form (sCD4, carrier-free); it is probably the extracellular domain of CD4 (surmised); also called recombinant CD4; source: bought: R&D Systems
The experiment is described as follows: SPR; Biacore T-200; sCD4 (2486.9 RU) or GFP (1189.8 RU) immobilised on CM5 chip; nanobodies flowed in HBS-EP (0.01 M HEPES pH 7.4, 0.15 M NaCl, 3 mM EDTA, 0.005% P20): anti-CD4 0.2-1.0 uM, anti-GFP 0.5-50 nM; 30 uL/min, contact 120 s, dissociation 120 s. To be noted: both partners purified. In general terms: Surface plasmon resonance follows binding to a sensor surface in real time, without labels.

B1: Anti-CD4-FLAG nanobody (VHH)
VHH: EVQLVESGGGSVQPGGSLTLSCGTSGRTFNVMGWFRQAPGKEREFVAAVRWSSTGIYYTQYADSVKSRFTISRDNAKNTVYLEMNSLKPEDTAVYYCAADTYNSNPARWDGYDFRGQGTQVTVSS
notes: also called anti-CD4 nanobody; source: Pichia pastoris GS115, secreted; culture supernatant filtered, concentrated and buffer-replaced with PBS
Usually Kd stands for a measure of binding affinity in units of concentration. Broadly, the koff is a measure of how fast the partners let go of each other. The kon is the second-order rate constant of association. Turning to B1, the Kd turned out to be 42 nM, the off-rate constant (koff) worked out at 0.0054 s⁻¹ and the on-rate constant (kon) came out at 68000 M⁻¹ s⁻¹.

B2: Anti-CD4-FLAG-Barcode 1 nanobody (VHH)
VHH: EVQLVESGGGSVQPGGSLTLSCGTSGRTFNVMGWFRQAPGKEREFVAAVRWSSTGIYYTQYADSVKSRFTISRDNAKNTVYLEMNSLKPEDTAVYYCAADTYNSNPARWDGYDFRGQGTQVTVSS
notes: also called peptide-barcoded anti-CD4 nanobody; source: Pichia pastoris GS115, secreted; culture supernatant filtered, concentrated and buffer-replaced with PBS; purified with anti-FLAG gels (immunostaining)
On to B2, for which the equilibrium dissociation constant (Kd) is 52 nM, the koff amounted to 0.004 s⁻¹ and the on-rate (kon) stood at 77000 M⁻¹ s⁻¹.

(Values after PMC6478338, “Peptide barcoding for establishment of new types of genotype–phenotype linkages” (PLoS ONE, 2019).)
